Results published in patent US20260139007A1, “EPHA4 ANTAGONISTS AND USES THEREOF” (SANFORD BURNHAM PREBYS MEDICAL DISCOVERY INSTITUTE, priority 2023, published 2026).

Experiments:
[1] = biological target: EphA4 Fc (human EphA4 Fc, #CJ75, Novoprotein, or mouse EphA4 Fc, #641-A4, R&D Systems/BioTechne) (human or mouse) (UniProt P54764); experiment: competition ELISA, inhibition of ephrin-A5 AP binding to immobilized EphA4 Fc
[2] = biological target: EphA4 Fc (human EphA4 Fc, #CJ75, Novoprotein, or mouse EphA4 Fc, #641-A4, R&D Systems/BioTechne) (human or mouse) (UniProt P54764); experiment: competition ELISA, inhibition of ephrin-A5 AP binding to immobilized EphA4 Fc (Table 2, repeats Table 1)

EphA4 Fc (human EphA4 Fc, #CJ75, Novoprotein, or mouse EphA4 Fc, #641-A4, R&D Systems/BioTechne) (human or mouse), sequence (P54764 20-547): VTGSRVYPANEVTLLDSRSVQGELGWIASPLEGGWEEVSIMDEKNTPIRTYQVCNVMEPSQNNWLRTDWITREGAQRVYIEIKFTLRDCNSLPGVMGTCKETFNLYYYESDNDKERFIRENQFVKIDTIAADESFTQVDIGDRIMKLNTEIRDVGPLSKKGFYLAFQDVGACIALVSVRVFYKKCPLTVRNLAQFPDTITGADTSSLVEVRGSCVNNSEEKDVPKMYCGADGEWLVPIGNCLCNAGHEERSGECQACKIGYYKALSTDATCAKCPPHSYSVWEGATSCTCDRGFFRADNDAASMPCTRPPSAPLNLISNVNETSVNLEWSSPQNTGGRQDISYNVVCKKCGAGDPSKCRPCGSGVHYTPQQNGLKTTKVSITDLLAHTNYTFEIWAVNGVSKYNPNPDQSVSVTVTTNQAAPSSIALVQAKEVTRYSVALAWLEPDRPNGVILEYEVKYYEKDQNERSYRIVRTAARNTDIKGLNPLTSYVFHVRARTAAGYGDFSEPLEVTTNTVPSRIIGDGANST

B1: APY-d3-PEG4 (peptide)
peptide: XPYCVYRXSWSCXXX
modifications: β-alanine at 1 and 8; disulfide bond Cys4-Cys12 (Cyc (4,12)); three 6-aminohexanoic acid (Ahx) residues and propargyl-glycine (Pra) after Cys12; 30 kDa methoxy-PEG on Pra through a triazole (click chemistry); free C-terminal acid (-OH)
- IC50 [1]: 20 nM
- IC50 [2]: 20 nM
